Measurements taken from publication PMC4838890, “Dynamic and flexible H3K9me3 bridging via HP1β dimerization establishes a plastic state of condensed chromatin” (Nature Communications, 2016).

How the values were obtained:
HP1β (Homo sapiens) = HP1β (Homo sapiens) (UniProt P83916); conditions: cited from earlier work
[1] = biological target: H3K9me3 oligonucleosomes (12-mer oligonucleosomal arrays) (Xenopus laevis); experiment: co-sedimentation; chromatin coprecipitation with oligonucleosomes reconstituted to different saturation (0.8:1.0, 1.0:1.0, 1.0:1.2 octamers to positioning sequences); saturating protein concentrations; Coomassie bands quantified in relation to input
[2] = biological target: H3KC9me3 oligonucleosomes (12-mer oligonucleosomal arrays) (Xenopus laevis); experiment: ITC; 1.8 mM hHP1β injected into 60 μM H3 peptides, nucleosomes or oligonucleosomal arrays; 25°C; 10 mM triethanolamine pH 7.5, 150 mM NaCl, 0.1 mM EDTA; apparent; one set of identical sites
[3] = biological target: free H3K9me3 tail peptide; experiment: as above
[4] = biological target: H3KC9me3 mononucleosome (Xenopus laevis); experiment: as above
[5] = biological target: H3K9me3 mononucleosome (Xenopus laevis); experiment: SPR; biotinylated ligands on streptavidin (SA) chips, hHP1β proteins injected; 298 K; 10 mM triethanolamine pH 7.5, 150 mM NaCl, 0.1 mM EDTA, 1 mM DTT, 0.005% Tween-20; steady-state analysis; apparent
[6] = biological target: free H3K9me3 tail peptide; experiment: ITC; 1.8 mM hHP1β injected into 60 μM H3 peptides, nucleosomes or oligonucleosomal arrays; 25°C; 10 mM triethanolamine pH 7.5, 20 mM NaCl, 0.1 mM EDTA; apparent; one set of identical sites
[7] = biological target: H3KC9me3 mononucleosome (Xenopus laevis); experiment: as above
H3KC9me3 tail peptide [8] = experiment: ITC; 1.8 mM hHP1β injected into 60 μM H3 peptides, nucleosomes or oligonucleosomal arrays; 25°C; 10 mM triethanolamine pH 7.5, 150 mM NaCl, 0.1 mM EDTA; apparent; one set of identical sites
[9] = biological target: H3K9me3 oligonucleosomes (12-mer oligonucleosomal arrays) (Xenopus laevis)
H3KC9me3 tail peptide [10] = experiment: ITC; 1.8 mM hHP1β injected into 60 μM H3 peptides, nucleosomes or oligonucleosomal arrays; 25°C; 10 mM triethanolamine pH 7.5, 20 mM NaCl, 0.1 mM EDTA; apparent; one set of identical sites

Sequence of human HP1β wild type (hHP1β WT) (P83916 whole entry): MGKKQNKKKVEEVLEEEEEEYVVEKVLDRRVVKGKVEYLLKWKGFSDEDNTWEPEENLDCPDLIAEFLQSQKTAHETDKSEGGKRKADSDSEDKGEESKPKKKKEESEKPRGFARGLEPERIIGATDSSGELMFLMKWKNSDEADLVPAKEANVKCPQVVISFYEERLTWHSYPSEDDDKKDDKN
Sequence of HP1β (P83916 whole entry): as above
Sequence of Swi6 (P40381 whole entry): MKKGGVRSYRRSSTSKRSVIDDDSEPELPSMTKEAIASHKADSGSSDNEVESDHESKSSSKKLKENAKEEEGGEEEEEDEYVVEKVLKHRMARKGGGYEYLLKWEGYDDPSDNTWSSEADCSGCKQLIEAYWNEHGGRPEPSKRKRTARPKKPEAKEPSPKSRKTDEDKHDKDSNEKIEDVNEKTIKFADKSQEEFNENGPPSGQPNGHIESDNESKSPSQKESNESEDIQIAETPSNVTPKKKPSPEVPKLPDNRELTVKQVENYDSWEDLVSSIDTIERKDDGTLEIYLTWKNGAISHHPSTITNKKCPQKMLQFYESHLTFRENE

stoichiometry N (molecules per nucleosome) [1]	Kd [2]	stoichiometry N [2]	stoichiometry N [3]	Kd [4]	stoichiometry N [4]	Kd [5]	Kd [6]	stoichiometry N [6]	Kd [7]	stoichiometry N [7]	Substance	also measured
											HP1β (from UniProt P83916)	Kd (HP1β (Homo sapiens)): < 0.001 µM
4											Swi6 (from UniProt P40381 1-328) (natural protein)	
	132 µM	1.1	0.9	58 µM	1.2	5.2 µM	1.1 µM	1	223 µM	1.1	hHP1β I161A (from UniProt P83916 1-185) (natural protein)	Kd [3]: 3.4 µM
			1.1								hHP1β chromo domain (CD) (domain or fragment)	
2	11 µM	1.9	1	22 µM	1.4	1 µM	1.4 µM	0.9	59 µM	2.1	human HP1β wild type (hHP1β WT) (from UniProt P83916 1-185) (natural protein)	Kd (H3KC9me3 tail peptide [8]): 21 µM; stoichiometry N (H3KC9me3 tail peptide [8]): 1; half-maximal effect in the chromatin precipitation (sedimentation) assay, 150 mM NaCl, 4°C [9]: 0.4 µM; half-maximal effect on the hydrodynamic radius of oligonucleosomes by FCS, 150 mM NaCl, 23°C [9]: 3.5 µM; Kd (H3KC9me3 tail peptide [10]): 11 µM; stoichiometry N (H3KC9me3 tail peptide [10]): 1
